One block for each binder: values may come before it. Where no end group is shown, it is not given here. The star is where a group is joined. Biotin = O=C1N[C@H]2[C@H](CS[C@H]2CCCCC(=O)*)N1
Target: HLA-DR3 (HLA-DRβ1-Arg74 positive) on the surface of VAVY cells (human (endogenous in VAVY))
Assay: flow cytometry on cells

- percent binding to DRβ-Arg74-positive cells at 10 μM peptide: 5.1%
- percent binding to DRβ-Arg74-positive cells at 20 μM peptide: 21.7%
- percent binding to DRβ-Arg74-positive cells at 50 μM peptide: 51%
B1: TSHR132–150 peptide, biotinylated (peptide)
peptide: Biotin-GIFNTGLKMFPDLTKVYST

- percent binding to DRβ-Arg74-positive cells at 10 μM peptide: 14.7%
- percent binding to DRβ-Arg74-positive cells at 20 μM peptide: 19.4%
- percent binding to DRβ-Arg74-positive cells at 50 μM peptide: 72.9%
B2: TSHR197–216 peptide, biotinylated (peptide)
peptide: Biotin-FNGTKLDAVYLNKNKYLTVI
